Patent US20140287419A1, “Compositions Having Dicamba Decarboxylase Activity and Methods of Use” (priority 2013, published 2014)
Entries after “also recorded” stand apart in the source; their conditions may differ.

B1: SEQ ID NO:95: Alpha-Amino-Beta-Carboxymuconate-Epsilon-Semialdehyde-Decarboxylase, Pseudomonas fluorescens (protein, listed as Pseudomonas fluorescens)
chain: MAKKPRIDMHSHFFPRISEQEAAKFDANHAPWLQVSAKGDTGSIMMGKNNFRPVYQALWDPAFRIEEMDAQGVDVQVTCATPVMFGYTWEANKAAQWAERMNDFALEFAAHNPQRIKVLAQVPLQDLDLACKEASRAVAAGHLGIQIGNHLGDKDLDDATLEAFLTHCANEDIPILVHPWDMMGGQRMKKWMLPWLVAMPAETQLAILSLILSGAFERIPKSLKICFGHGGGSFAFLLGRVDNAWRHRDIVREDCPRPPSEYVDRFFVDSAVFNPGALELLVSVMGEDRVMLGSDYPFPLGEQKIGGLVLSSNLGESAKDKIISGNASKFFNINV
B2: 26 (protein, listed as Variovorax paradoxus)
chain: MATHMAPMKNKIALEEHFAIDLTIADSQVYARPEVWQGLKSNLLDFEQQRLEKMDEWGTEFSILSLNSPAVQGIPDAKRAIEVAQRANDVLAEQVKRHPTRFGGFAALPMQDPEASARELERCVNQLGFHGFLVNGFSQVGDENIVVYYDDARFNDFWTAAAALKKPFYMHPRDPLLAREPIYDGAHWLTGPTWAFAMETAIHALRLMSSGMFDRHPALQMILGHFGEGIPFNIWRVDHILRKGRRGMPCDKEIGEYLRSNVHITTSGNFRTPTLLSTMLEVGSDRIMYSVDYPFEKHEDAARWFDTCEISENDRQKIGRDNARKLFGLK
B3: 32 (protein)
chain: MARIIAIEEHFLDLDIARASRPEAERLSPAFAAAYGAGQGYNYSPAPEVLLDLEEGRVADMDAHGISMQVLSSLSTQQLPADVAVELVRKVNDRAAAAVAARPDRFAAFAALPTTVPEAAADELDRAVGELGFVGSMINGRTGDAFLDAPRFDAVLRRSAELRVPVYLHPGVPPVETSRSNYEGGLDPIVTARLQTSAWGWHVETGIHFLHLVLAGVFDRYPDLQVILGHWGEMVPFFLERIEEALPQQITHLDRPVGAYFRENAHITPSGMFSQAQLQFCVETVGIERIMFSVDYPFLGNDGAEAFLRQANLPPLATEKIAHLNAERLLALPS
modifications: Streptomyces violaceusniger
B4: 27 (protein, listed as Aspergillus oryzae)
chain: MALGKIALEEAFALPRFEEKTRWWASLFSTDAETHVKEITDINKIRIEHADKHGVGYQILSYTAPGVQDIWDPVEAQALAVEINDYIAEQVRVNPDRFGAFATLSMHNPKEAADELRRCVEKYGFKGALVNDTQRAGPDGDDMIFYDNADWDIFWQTCTELDVPFYMHPRNPTGTIYEKLWADRKWLVGPPLSFAHGVSLHVLGMVTNGVFDRHPKLQIIMGHLGEHVPFDMWRINHWFEDRKKLLGLAETCKKTIRDYFAENIWITTSGHFSTTTLNFCMAEVGSDRILFSIDYPFETFSDACEWFDNAELNGTDRLKIGRENAKKLFKLDSYKDSSA
B5: SEQ ID NO: 116 (protein)
chain: MAQGKVALEEHFAIPETLQDAAGFVPGDYWKELQHRLLDIQDRRVRLMDEHGIETMILSLNAPAVQAIADSTRANETARRANDFLAEQVAKQPTRFRGFAALPMQDPELAARELERCVKELGFVGALVNGFSQDNRSAVPLYYDMAQYWPFWETVQALDVPFYLHPRNPLPSDARIYDGHAWLLGPTWAFGQETAVHALRLMGSGLFDKYPALKIILGHMGEGLPYSMWRIDHRNAWIKTTPKYPAKRKIVDYFNENFYLTTSGNFRTQTLIDAILEIGADRILFSTDWPFENIDHAADWFENTSISEADRKKIGWGNAQNLFKLNR
modifications: Dicamba decarboxylase variant clone DC.30.007
B6: 28 (protein, listed as Sphingomonas paucimobilis)
chain: MARLIATEEAVTFQPVVDALRAHSRTDDASLDMILVRDVYGDEPARPAMIGRLSDVTGERLAEMDSNGVDMHLLSLTAPGVQMFDAETGTRLARIANDLMAQTVAANPTRFAGLGTFAPQDPASAAREIERVATQLRLNGLVINSHTNDLYYDDPFFHPVFEAIEASGLALYIHPRAPSKQIDRAFRDYGMNSAIWGYGIETSTNAVRMILSGLFDRFPRLKIVLGHMGEAIPFWLWRLDYMHGNATTFGGAPKLKLKPSEYFRRNFAITTSGVESHAALRYSIEVLGPENVMWAIDYPYQPMAPAVQFIRTAPIPEDVKAMVAGGNAARIFRIT
B7: 2 (protein, listed as Serratia sp.)
chain: MAKIICLEEHTLDKALVMASMPAALEQAPFLSDWGKTVTDGNLPDRSRPQIEKNDLINIKGADIGRGRLDDMDVAGITMQVLSVGGFPHLISAAEGVDLNRAANDRLADAVNAHPDRFAAFATLPWAQPDSAEKELERAVKELGFKGALLNGRPSTHFLDHPDYDGLLARFNALGVPLYLHPGLPVRSVQQAYYGGFSDEVTARLSMFGWGWHHEAGIHLLRLILSGAFDKYPNLQVISGHWGEMLPFWLQRLDDSLPQAATGLRRTIAQTFKEQVYVTPSGMLTLPHFQFIYALLGAERIIFSVDYPYQTLDGVKAFIQSLPVPEEAKEAIAFRNAERLLGLTS
B8: SEQ ID NO:100: 4-Oxalomesaconate hydratase, Reinekea blandensis MED297 (protein, listed as Reinekea blandensis)
chain: MAIIDCHGHYTTTPKGVEDYRNAQKAAVAKDPSFKGEKGQVVVSDDEIRESIENNQLKMQRERGTDLTIFSPRASWMGHHIGNEYTSQFWTEHQNDLIRRVCDLFPKNFAPVAQLPQSPGVDPAKSVPEIVRTVEQMGFIGINLNPDPSGGYWKDTSLADRAFYPIYEKMVEYDIPAMIHVSAACNDCFHTTGSHYLGADTTGFQQLIMSDVFKDFPSLKIIIPHGGGAVPYHWGRFRGLMQDQGYAPLEESALKNIYFDTCVYHQRGIDLLLDIVPTQNILFASEMIGAVRGIDPETGHNFDDTKRYIDNNTALNAEEKAMIFEGNARRVFSRLKTD
B9: 30 (protein)
chain: MARGKIALEEHVSTPENNRLWDSTGEANRNGSEYMQDVERRLLDRSIQLEEMAQRNIDHVILSLTSPGAQSILDKAKAVSFARDTNDFIVDNYVKPNPDKFSAFATLALQNPEAAAEELERAVKKLGMKGALINGYTNVKDSEHGLYLDDESMLVFWDKVNELNVPVYLHPREPLEGPARGIYTGYESLIGSAWGFAQETAVHAIRLMMSGLFDRYPNLNLVLGHLGEGLVHMLPRTQHRLYRQRFGCGLGKAEKPLMHYLQNNFIVTTSGHFNTHSLNNAIEVMGADRVMFSVDYPYEDIHQACDWFDPLEMDEGLKEKIAWGNASRVFNIK
modifications: Enterobacter aerogenes
B10: 29 (protein, listed as Pseudovibrio sp.)
chain: MAGRRDFLRKSVAAGVGLTAAAQLSAGGAQATVPDTSNIPLITLEEHFTTPELQSKNTSGDKRLFSGGGSRPELLDVGAGRIADMDEAGIDIQVLSTVTPGASKITGAEGVEFTRKFNTWIAEEVIAAYPNRFRAFATLPLSSPEAAADELERSVREYGFVGTMTYGPIDGKFLDHADYAPLLARAEALGVPIYIHPNWPSPTAMQAYYDGLGDDLTSRILSGPGYGWHQEIAVQCLRLIVGGVFDRFPNLQIVVGHMGEGLPFYYWRVGEDLDRIAQKRLQKPVQQYFHDNLWITTSAFFRDELLNLALATMGEDRVMFSVDYPMASAKVGADWLRAADIPLATKEKIGSKNAMKLLGIDKI
B11: 24 (protein)
chain: MALGKVVLEEAYERPNMKEKSNHEAGLYIAPNDRPRYMRQINDINQERLKLADAHGVGYTIISLTVPGIQGIFDKTEAERVATETNNWAAEQIKNHRDRLGAFACLSMHDPAQAANELRRCVQELGFHGALLCSFQHAGPDGETYLFYDQPKYDVFWKALTELDVPLYIHPAAPTGSILERLYAQRPALIGPPLSFANDVSLHTLGIISNGVFDRFPNLKIIIGHLGEHIPFDFWRIDHWFRDVKKPIADEEGRVMAQKSLYHYFKHNIWLTTSGHFSTPTLKYVVNEIGVDRVLFSVDYPYETTESGCNWWDHDKDAIVEAVGGVDNYYAIGRENAKKLLRLDKFHDSDAR
modifications: Aspergillus niger
B12: 25 (protein, listed as Acidovorax avenae)
chain: MAQGKIGLEEHFAIPETLQDSAGFVPGDYWKELSLRLLDIHERRLREMDENGMEMMILSLNAPAVQAIPDTKKAVEIAVRANDFLAEQVARRPDRFQAFAALPMQDPDLATRELERCMQDLGFRGALVNGFSQVGTPENVVYYDAPQYGDFWAAVERLDAPFYLHPRNPIASWAQIYQGHPWLMGPTWAFAQETAVHALRLMASGLFDRHPGLRIILGHLGEGLPYNMWRVDHRNAWVDMPKGYPAKRKLCDYFHENFYLTTSGNFRTQTLIDALLEVGADRILFSTDWPFENVDHAAHWFDDAAISEADRLKIGRTNALSLFKLPQG
B13: 31 (protein, listed as Agrobacterium sp.)
chain: MAQGKVALEEHFAIPETLQDSAGFVPGDYWKELQHRLLDIQDTRLKLMDAHGIETMILSLNAPAVQAIPDKTKAIEIARRANDVLAEECAKRPDRFLAFAALPLQDPDAATEELQRCVNDLGFVGALVNGFSQEGDGQTPLYYDLPQYRPFWGEVEKLDVPFYLHPRNPLPQDSRIYDGHPWLLGPTWAFAQETAVHALRLMASGLFDEHPRLNIILGHMGEGLPYMMWRIDHRNAWVKLPPRYPAKRRFMDYFNENFHITTSGNFRTQTLIDAILEIGADRILFSTDWPFENIDHASDWFNATSIAEADRVKIGRTNARRLFKLDGA

How the values were obtained:
[1] = Dicamba decarboxylation activity of computationally designed protein variants; details: native protein or designed variant versus parent
[2] = 14C assay with IPTG-induced recombinant E. coli cells (14CO2 capture from [14C]-carboxyl-labeled dicamba); details: for Dicamba Decarboxylase Activity: IPTG-induced recombinant E. coli cells, [14C]-carboxyl-labeled dicamba, 14CO2 capture; for Enzymatic Detection level: dicamba decarboxylation activity of the protein of the given SEQ ID NO

Row | Molecule | Dicamba Decarboxylase Activity [1] | Dicamba Decarboxylase Activity [2] | Enzymatic Detection level [2]
1 | B1 | not active for dicamba decarboxylation; also recorded: Neither of the native proteins have dicamba decarboxylase activity |  | 
2 | B2 |  | High | High
3 | B3 |  | High | High
4 | B4 |  | No | No
5 | B5 | improved dicamba decarboxylase activity |  | 
6 | B6 |  | High | High
7 | B7 |  | High | High
8 | B8 | Neither of the native proteins have dicamba decarboxylase activity |  | 
9 | B9 |  | High | High
10 | B10 |  | No | No
11 | B11 |  | Low | Low
12 | B12 |  | Low | Low
13 | B13 |  | High | High
